Measurements as given in PMC5314169, “Structure of the Branched-chain Amino Acid and GTP-sensing Global Regulator, CodY, from Bacillus subtilis*” (The Journal of Biological Chemistry, 2016).

Key:
[1] = target: CodY(L3S), leucine 3 to serine mutant of CodY from Bacillus subtilis (Bacillus subtilis) (UniProt P39779); assay: crystal structure; CodY(L3S) at 18 mg/ml with 20 mM isoleucine; 15% PEG 5000, 5% tacsimate, 0.1 M HEPES pH 7.5; four molecules per asymmetric unit
[2] = target: the molecule itself; assay: SEC-MALLS; 100 ul of 1 mg/ml (~35 uM) protein on Superdex S200 10/300 in 50 mM Tris-HCl pH 7.5, 150 mM NaCl, with or without 10 mM isoleucine (no effect on the trace); no tetramers seen
[3] = target: the molecule itself; assay: crystal structure; unliganded CodY, three crystal forms (A, B, C) grown from 10-20 mg/ml protein; form B with 10 mM GTP and form C with 5 mM GTPgammaS present but not seen bound; tetramer in all forms
[4] = target: T1, CodY (wild type, C-terminal His5) (Bacillus subtilis, UniProt P39779 2-259); assay: EMSA; 10 mM Ile/Leu/Val; only C1 complex; EMSA: 20 mM Tris-Cl pH 8.0, 50 mM KCl, 2 mM MgCl2, 5% glycerol, 0.5 mM EDTA, 1 mM DTT, 0.05% Nonidet P, salmon sperm DNA (printed 40-25 ug/ml), room temperature 16 min, +/-10 mM ILV; details: protein: recombinant; tags: C-terminal His5; chain copies: 2; label: 32P 5' on one strand; blunt
T1 sequence: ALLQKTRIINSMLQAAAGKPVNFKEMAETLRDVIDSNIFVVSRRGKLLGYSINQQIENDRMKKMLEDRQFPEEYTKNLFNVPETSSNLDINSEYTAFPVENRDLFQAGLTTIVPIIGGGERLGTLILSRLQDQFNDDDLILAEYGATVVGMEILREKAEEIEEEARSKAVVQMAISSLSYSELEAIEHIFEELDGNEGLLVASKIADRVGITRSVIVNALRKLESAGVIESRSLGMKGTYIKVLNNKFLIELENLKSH

[5] = target: T1, CodY (wild type, C-terminal His5); assay: EMSA; 10 mM Ile/Leu/Val; apparent Kd, CodY monomer; C2 predominant; EMSA: 20 mM Tris-Cl pH 8.0, 50 mM KCl, 2 mM MgCl2, 5% glycerol, 0.5 mM EDTA, 1 mM DTT, 0.05% Nonidet P, salmon sperm DNA (printed 40-25 ug/ml), room temperature 16 min, +/-10 mM ILV; details: protein: recombinant, tags: C-terminal His5, chain copies: 2, blunt

CodY(L3S), leucine 3 to serine mutant of CodY from Bacillus subtilis (from UniProt P39779 1-259) (natural protein)
stoichiometry N [1]: 4

B1: CodY from Bacillus subtilis, full-length, wild type (natural protein)
chain: GPAMALLQKTRIINSMLQAAAGKPVNFKEMAETLRDVIDSNIFVVSRRGKLLGYSINQQIENDRMKKMLEDRQFPEEYTKNLFNVPETSSNLDINSEYTAFPVENRDLFQAGLTTIVPIIGGGERLGTLILSRLQDQFNDDDLILAEYGATVVGMEILREKAEEIEEEARSKAVVQMAISSLSYSELEAIEHIFEELDGNEGLLVASKIADRVGITRSVIVNALRKLESAGVIESRSLGMKGTYIKVLNNKFLIELENLKSH
notes: what is left of the tag after cleavage with human rhinovirus 3C protease, printed as Gly-Pro-Ala; CodY, Bacillus subtilis, 259 amino acid residues, calculated mass 29 kDa; construct pET-YSBLIC-BsCodY; also called unliganded CodY; wild-type CodY; source: E. coli BL21(DE3), purified (nickel chelation, 3C protease cleavage, second nickel column, heparin, Superdex 200); not shown: polyhistidine, …
stoichiometry N [2]: 2
stoichiometry N [3]: 4

B2: BcaPp8(19) (dsDNA)
DNA 1: CGAATTTTCTGAAAATTTT
DNA 2: AAAATTTTCAGAAAATTCG
binding result [4]: binds

B3: BcaPp8(31) (dsDNA)
DNA 1: TAAAAAATTTGTCGAATTTTCTGAAAATTTT
DNA 2: AAAATTTTCAGAAAATTCGACAAATTTTTTA
Kd ([5]; label: 32P 5' on one strand): 1.6 nM

B4: BcaPp8(36) (dsDNA)
DNA 1: CAAAATAAAAAATTTGTCGAATTTTCTGAAAATTTT
DNA 2: AAAATTTTCAGAAAATTCGACAAATTTTTTATTTTG
Kd ([5]; label: 32P 5' on one strand in EMSA): 1.6 nM
